Patent US20080260641A1 (Genmab, published 2008)

T1: human CD20 (human, UniProt P11836 1-297)
T1 construct: whole, on cells; also called WT CD20; wild-type (WT) CD20
T1 sequence (looked up): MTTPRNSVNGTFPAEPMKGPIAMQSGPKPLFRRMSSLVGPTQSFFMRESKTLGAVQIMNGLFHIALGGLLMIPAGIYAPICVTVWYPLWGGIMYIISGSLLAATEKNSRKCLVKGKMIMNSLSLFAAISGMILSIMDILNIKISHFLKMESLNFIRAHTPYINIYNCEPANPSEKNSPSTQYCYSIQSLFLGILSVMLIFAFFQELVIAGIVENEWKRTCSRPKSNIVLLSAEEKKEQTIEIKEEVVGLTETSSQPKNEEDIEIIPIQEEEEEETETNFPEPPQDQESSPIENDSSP

B1: 11B8 (antibody, V domains shown)
VH: EVQLVQSGGGLVHPGGSLRLSCTGSGFTFSYHAMHWVRQAPGKGLEWVSIIGTGGVTYYADSVKGRFTISRDNVKNSLYLQMNSLRAEDMAVYYCARDYYGAGSFYDGLYGMDVWGQGTTVTVSS
VL: EIVLTQSPATLSLSPGERATLSCRASQSVSSYLAWYQQKPGQAPRLLIYDASNRATGIPARFSGSGSGTDFTLTISSLEPEDFAVYYCQQRSDWPLTFGGGTKVEIK
notes: also called human recombinant monoclonal IgG1,κ anti-CD20 antibody 11B8

How the values were obtained:
human CD20 [1] = biological target: T1, human CD20; experiment: flow cytometry on CD20-positive NS/0 cells, control antibody
human CD20 [2] = biological target: T1, human CD20; experiment: flow cytometry blocking assay on CD20-NS/0 cells: pre-incubation with the control, then competitor rituximab-FITC 10 µg/ml
human CD20 [3] = biological target: T1, human CD20; experiment: flow cytometry, FITC-conjugated antibodies on Daudi and Raji cells

Row | Molecule | Binding CD20-NS/0 (mean fluorescence) (mean fluorescence) (human CD20 [1]) | Blocking of rituximab (signal of rituximab-FITC left after pre-incubation) (human CD20 [2]) | binding result (human CD20 [3])
1 | human IgG1 control antibody | 14 | 179 | 
2 | human IgM control antibody | 9 | 182 | 
3 | B1 |  |  | binds
